System: Escherichia coli TOP10
Experiment: shrunken log2 fold change of peptide-encoding DNA abundance (4.5 h post-induction vs induction); higher = less antimicrobial activity (less host growth inhibition)
Details: time post-induction: 4.5 h; library: site-saturation at positions 5, 18, 19, 20
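Further: peptides expressed intracellularly from a pBAD plasmid library in pooled LB shake-flask culture, induced with 0.3% L-arabinose, DNA abundance read by NGS, three biological replicates, DESeq2 with apeglm shrinkage.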

Row | Sequence | shrunken log2 fold change
1 | RRIRYRPPRLPRPRPRPHGIPRP | 0.0191
2 | RRIRARPPRLPRPRPRPINVPRP | -0.0118
3 | RRIRRRPPRLPRPRPRPAQSPRP | 0.247
4 | RRIRRRPPRLPRPRPRPPQRPRP | 1.64
5 | RRIRCRPPRLPRPRPRPAWAPRP | 0.108
6 | RRIRARPPRLPRPRPRPNFSPRP | -0.0677
7 | RRIRSRPPRLPRPRPRPLFNPRP | -0.632
8 | RRIRHRPPRLPRPRPRPIVYPRP | -0.452
9 | RRIRMRPPRLPRPRPRPDPSPRP | -0.0334
10 | RRIRKRPPRLPRPRPRPSCFPRP | 0.109
11 | RRIRRRPPRLPRPRPRPDCAPRP | 0.345
12 | RRIRARPPRLPRPRPRPMAEPRP | 0.238
13 | RRIRKRPPRLPRPRPRPCSGPRP | 0.00663
14 | RRIRWRPPRLPRPRPRPISTPRP | -0.399
15 | RRIRVRPPRLPRPRPRPWDWPRP | 0.163
16 | RRIRVRPPRLPRPRPRPGGYPRP | 0.0682
17 | RRIRQRPPRLPRPRPRPEMHPRP | 0.393
18 | RRIRTRPPRLPRPRPRPPLFPRP | 0.482
19 | RRIRERPPRLPRPRPRPFLTPRP | -0.506
20 | RRIRLRPPRLPRPRPRPLGWPRP | 0.584
21 | RRIRFRPPRLPRPRPRPIRSPRP | -0.0101
22 | RRIRDRPPRLPRPRPRPKQFPRP | -0.00831
23 | RRIRARPPRLPRPRPRPCPEPRP | 0.179
24 | RRIRMRPPRLPRPRPRPQISPRP | -0.28
25 | RRIRPRPPRLPRPRPRPNGFPRP | -0.216

Row | Sequence | shrunken log2 fold change
26 | RRIRMRPPRLPRPRPRPDYEPRP | -0.0178
27 | RRIRRRPPRLPRPRPRPCQRPRP | 0.0494
28 | RRIRWRPPRLPRPRPRPKVPPRP | -0.0143
29 | RRIRSRPPRLPRPRPRPMREPRP | 0.142
30 | RRIRERPPRLPRPRPRPARYPRP | 0.24
31 | RRIRCRPPRLPRPRPRPKNYPRP | -0.676
32 | RRIRPRPPRLPRPRPRPLKCPRP | -0.131
33 | RRIRFRPPRLPRPRPRPPKMPRP | 0.436
34 | RRIRRRPPRLPRPRPRPLKYPRP | 0.0102
35 | RRIRYRPPRLPRPRPRPPDKPRP | 0.194
36 | RRIRTRPPRLPRPRPRPFMHPRP | -0.547
37 | RRIRTRPPRLPRPRPRPYFCPRP | -0.0855
38 | RRIRIRPPRLPRPRPRPERLPRP | 0.0553
39 | RRIRHRPPRLPRPRPRPSYYPRP | -1.56
40 | RRIRKRPPRLPRPRPRPFSTPRP | -0.187
41 | RRIRCRPPRLPRPRPRPWYGPRP | -0.49
42 | RRIRKRPPRLPRPRPRPGMMPRP | 0.308
43 | RRIRKRPPRLPRPRPRPLGFPRP | 0.872
44 | RRIRTRPPRLPRPRPRPFAFPRP | 0.0192
45 | RRIRMRPPRLPRPRPRPWHYPRP | -0.327
46 | RRIRLRPPRLPRPRPRPAENPRP | 0.0583
47 | RRIRFRPPRLPRPRPRPYVHPRP | -1.75
48 | RRIRMRPPRLPRPRPRPDWCPRP | 0.0698
49 | RRIRPRPPRLPRPRPRPYYHPRP | -0.794
50 | RRIRHRPPRLPRPRPRPTKHPRP | -0.142

Row | Sequence | shrunken log2 fold change
51 | RRIRDRPPRLPRPRPRPHPDPRP | -0.116
52 | RRIRTRPPRLPRPRPRPCFMPRP | -0.153
53 | RRIRYRPPRLPRPRPRPTELPRP | 0.0588
54 | RRIRIRPPRLPRPRPRPQSQPRP | -0.513
55 | RRIRDRPPRLPRPRPRPMWLPRP | 0.015
56 | RRIRGRPPRLPRPRPRPANPPRP | 0.476
57 | RRIRGRPPRLPRPRPRPVSRPRP | 0.491
58 | RRIRSRPPRLPRPRPRPCAMPRP | -0.173
59 | RRIRNRPPRLPRPRPRPLDVPRP | -0.251
60 | RRIRTRPPRLPRPRPRPLMCPRP | -0.151
61 | RRIRCRPPRLPRPRPRPYFSPRP | -0.135
62 | RRIRRRPPRLPRPRPRPKHLPRP | 0.0709
63 | RRIRKRPPRLPRPRPRPFWWPRP | 0.592
64 | RRIRDRPPRLPRPRPRPAMIPRP | -0.129
65 | RRIRERPPRLPRPRPRPEQQPRP | -0.0255
66 | RRIRRRPPRLPRPRPRPDETPRP | 0.745
67 | RRIRKRPPRLPRPRPRPLIYPRP | -0.213
68 | RRIRDRPPRLPRPRPRPQNMPRP | -0.574
69 | RRIRGRPPRLPRPRPRPDYTPRP | 0.343
70 | RRIRMRPPRLPRPRPRPEKLPRP | 0.462
71 | RRIRERPPRLPRPRPRPINVPRP | 0.017
72 | RRIRNRPPRLPRPRPRPFDNPRP | -0.465
73 | RRIRNRPPRLPRPRPRPASKPRP | 0.0111
74 | RRIRKRPPRLPRPRPRPLRDPRP | 0.757
75 | RRIRKRPPRLPRPRPRPTFSPRP | 0.148

Row | Sequence | shrunken log2 fold change
76 | RRIRDRPPRLPRPRPRPWLIPRP | -0.138
77 | RRIRRRPPRLPRPRPRPAWKPRP | 0.2
78 | RRIRIRPPRLPRPRPRPCIAPRP | -0.0579
79 | RRIRYRPPRLPRPRPRPGALPRP | 0.137
80 | RRIRSRPPRLPRPRPRPRGDPRP | 0.477
81 | RRIRLRPPRLPRPRPRPANLPRP | -0.00914
82 | RRIRSRPPRLPRPRPRPRNMPRP | -0.53
83 | RRIRERPPRLPRPRPRPYYIPRP | -0.262
84 | RRIRSRPPRLPRPRPRPQEGPRP | -0.0317
85 | RRIRKRPPRLPRPRPRPYVIPRP | -0.112
86 | RRIRYRPPRLPRPRPRPKKCPRP | -0.0883
87 | RRIRVRPPRLPRPRPRPDKVPRP | -0.332
88 | RRIRGRPPRLPRPRPRPNGLPRP | 0.377
89 | RRIRRRPPRLPRPRPRPWSWPRP | -0.0122
90 | RRIRERPPRLPRPRPRPSQPPRP | 0.0471
91 | RRIRIRPPRLPRPRPRPPNQPRP | -0.0959
92 | RRIRKRPPRLPRPRPRPLTPPRP | 0.658
93 | RRIRQRPPRLPRPRPRPETNPRP | 0.0137
94 | RRIRDRPPRLPRPRPRPLMCPRP | 0.498
95 | RRIRKRPPRLPRPRPRPLPMPRP | 0.562
96 | RRIRWRPPRLPRPRPRPSKMPRP | -0.0978
97 | RRIRPRPPRLPRPRPRPYDHPRP | -0.0209
98 | RRIRKRPPRLPRPRPRPKQNPRP | 0.706
99 | RRIRVRPPRLPRPRPRPHWHPRP | -0.0411
100 | RRIRIRPPRLPRPRPRPTSLPRP | -0.14

Row | Sequence | shrunken log2 fold change
101 | RRIRSRPPRLPRPRPRPIKWPRP | -0.197
102 | RRIRLRPPRLPRPRPRPTFDPRP | -0.173
103 | RRIRVRPPRLPRPRPRPEKPPRP | 0.00308
104 | RRIRARPPRLPRPRPRPSCLPRP | -0.0189
105 | RRIRRRPPRLPRPRPRPERFPRP | 0.293
106 | RRIRFRPPRLPRPRPRPFHFPRP | -0.532
107 | RRIRQRPPRLPRPRPRPFRKPRP | -0.101
108 | RRIRSRPPRLPRPRPRPISMPRP | -0.145
109 | RRIRWRPPRLPRPRPRPGSHPRP | 0.0507
110 | RRIRFRPPRLPRPRPRPALKPRP | -0.0754
111 | RRIRRRPPRLPRPRPRPAHLPRP | 0.178
112 | RRIRARPPRLPRPRPRPHVWPRP | 0.29
113 | RRIRHRPPRLPRPRPRPGVWPRP | 0.178
114 | RRIRIRPPRLPRPRPRPNKTPRP | -0.125
115 | RRIRHRPPRLPRPRPRPRDQPRP | -0.0907
116 | RRIRHRPPRLPRPRPRPFTEPRP | 0.00246
117 | RRIRIRPPRLPRPRPRPQGTPRP | -0.272
118 | RRIRDRPPRLPRPRPRPNRHPRP | -0.327
119 | RRIRVRPPRLPRPRPRPWRKPRP | 0.0283
120 | RRIRERPPRLPRPRPRPFEKPRP | 0.00177
121 | RRIRIRPPRLPRPRPRPHVNPRP | 2.48
122 | RRIRSRPPRLPRPRPRPQSPPRP | -0.0599
123 | RRIRFRPPRLPRPRPRPYEPPRP | -0.204
124 | RRIRYRPPRLPRPRPRPIEFPRP | -0.0341
125 | RRIRERPPRLPRPRPRPGSIPRP | 0.0371

Reference: the supplement of paper PMC9112550, “Optimization of the antimicrobial peptide Bac7 by deep mutational scanning” (BMC Biology, 2022)
